Measured values as given in paper PMC9087419 (European Journal of Immunology, 2022).

How the values were obtained:
Assay in all cases: flow cytometry on cells
Conditions in all cases: one partner purified
[1] = biological target: T1, SARS‐CoV‐2 spike membrane protein of the Wuhan‐Hu‐1 strain (SARS-CoV-2 Wuhan-Hu-1 (QHD43416.1), UniProt P0DTC2)
T1 construct: source: HEK293, transiently cotransfected (PEI) with a GFP plasmid, on the cell surface

[2] = biological target: T2, SARS‐CoV‐2 spike membrane protein of the Delta variant (B.1.617.2) (SARS-CoV-2, Delta variant B.1.617.2, strain)
T2 construct: also called Delta spike protein

[3] = biological target: T3, SARS‐CoV‐2 spike membrane protein of the Omicron variant (B.1.1.529) (SARS-CoV-2, Omicron variant B.1.1.529, …, strain)
T3 construct: also called Omicron spike protein

Row | Binder | MdFI [1] | MdFI [2] | MdFI [3]
1 | REGN10933 (Casirivimab) (antibody, V domains shown) VH: QVQLVESGGGLVKPGGSLRLSCAASGFTFSDYYMSWIRQAPGKGLEWVSYITYSGSTIYYADSVKGRFTISRDNAKSSLYLQMNSLRAEDTAVYYCARDRGTTMVPFDYWGQGTLVTVSS VL: DIQMTQSPSSLSASVGDRVTITCQASQDITNYLNWYQQKPGKAPKLLIYAASNLETGVPSRFSGSGSGTDFTFTISGLQPEDIATYYCQQYDNLPLTFGGGTKVEIK | 236000 | 148000 | 103000
2 | CT‐P59 (Regdanivimab) (antibody, V domains shown, also called Regdanvimab; Regkirona) VH: QITLKESGPTLVKPTQTLTLTCSFSGFSLSTSGVGVGWIRQPPGKALEWLALIDWDDNKYHTTSLKTRLTISKDTSKNQVVLTMTNMDPVDTATYYCARIPGFLRYRNRYYYYGMDVWGQGTTVTVSS VL: ELVLTQPPSVSAAPGQKVTISCSGSSSNIGNNYVSWYQQLPGTAPKLLIYDNNKRPSGIPDRFSGSKSGTSATLGITGLQTGDEADYYCGTWDSSLSAGVFGGGTELTVL | 131000 | 233000 | 
3 | AZD8895 (Tixagevimab) (antibody, V domains shown) VH: QMQLVQSGPEVKKPGTSVKVSCKASGFTFMSSAVQWVRQARGQRLEWIGWIVIGSGNTNYAQKFQERVTITRDMSTSTAYMELSSLRSEDTAVYYCAAPYCSSISCNDGFDIWGQGTMVTVSS VL: not shown | 250000 | 59000 | 73000
4 | BMS‐986414 (C135) (antibody, V domains shown) VH: QVQLVESGGGVVQPGRSLRLSCAASGFTFSSYAMHWVRQAPGKGLEWVAVIPFDGRNKYYADSVTGRFTISRDNSKNTLYLQMNSLRAEDTAVYYCASSSGYLFHSDYWGQGTLVTVSS VL: DIQMTQSPSTLSASVGDRVTITCRASQSISNWLAWFQQKPGKAPKLLIYEASSLESGVPSRFSGSGSGTEFTLTISSLQPDDFATYYCQQYNSYPWTFGQGTKVEIK |  | 666000 | 
5 | LY‐CoV016 (Etesevimab) (antibody, V domains shown) VH: EVQLVESGGGLVQPGGSLRLSCAASGFTVSSNYMSWVRQAPGKGLEWVSVIYSGGSTFYADSVKGRFTISRDNSMNTLFLQMNSLRAEDTAVYYCARVLPMYGDYLDYWGQGTLVTVSS VL: not shown | 282000 | 192000 | 
6 | AZD1061 (Cilgavimab) (antibody, V domains shown) VH: EVQLVESGGGLVKPGGSLRLSCAASGFTFRDVWMSWVRQAPGKGLEWVGRIKSKIDGGTTDYAAPVKGRFTISRDDSKNTLYLQMNSLKTEDTAVYYCTTAGSYYYDTVGPGLPEGKFDYWGQGTLVTVSS VL: not shown |  | 468000 | 101000
7 | BMS‐986413 (C144) (antibody, V domains shown) VH: EVQLVESGGGLIQPGGSLRLSCAASGFTVSNNYMSWVRQAPGKGLEWVSVIYSGGSTYYADSVKGRFTISRDKSKNTLYLQMNRLRAEDTAVYYCAREGEVEGYNDFWSGYSRDRYYFDYWGQGTLVTVSS VL: QSALTQPASVSGSPGQSITISCTGTSSDVGGYNYVSWYQQHPGKAPKLMIYDVSNRPSGVSNRFSGSKSGNTASLTISGLQAEDEADYYCSSYTSSSTRVFGTGTKVTVL | 340000 | 408000 | 
8 | REGN10987 (Imdevimab) (antibody, V domains shown) VH: QVQLVESGGGVVQPGRSLRLSCAASGFTFSNYAMYWVRQAPGKGLEWVAVISYDGSNKYYADSVKGRFTISRDNSKNTLYLQMNSLRTEDTAVYYCASGSDYGDYLLVYWGQGTLVTVSS VL: QSALTQPASVSGSPGQSITISCTGTSSDVGGYNYVSWYQQHPGKAPKLMIYDVSKRPSGVSNRFSGSKSGNTASLTISGLQSEDEADYYCNSLTSISTWVFGGGTKLTVL | 371000 | 471000 | 
9 | S2H97 (antibody, V domains shown) VH: QVRLVQSGAEVKKSGESLKISCKGSGYSFTSYWIGWVRQMPGKGLEWMGIIYPGDSDTRYSPSFQGQVTISADKSISTVYLQWSSLKASDTAMYYCARQWSHYTYDYYYWGQGTLVTISS VL: QSVLTQPASVSGSPGQSITISCTGISSDVGGYNSVSWYQQHPGKAPKLMIYDVTNRPSGVSNRFSGSKSGNTASLTISGLQAEDEADYYCSSYTSSSTPPYVFGTGTKVSVL | 58000 | 74000 | 296000
10 | 8D2 (antibody, V domains shown) VH: EVQLVESGGGLVQPGGSLRLSCAASGFTFSSYWMSWVRQAPGKGLEWVANINQDGSEKYYVDSVKGRFTISRDNAKNSLYLQVNSLRAEDTAVYYCARDWDYDILTGSWFGAFDIWGQGTTVTVSS VL: DIQMTQSPSSLSASVGDRVTITCRASQGIRNDLGWYQQKPGKAPKRLIYAASSLQSGVPSRFSGSGSGTEFTLTISSLQPEDFATYYCLQHNSYPLTFGGGTKVEIK | 37000 |  | 
11 | LY‐CoV555 (Bamlanivimab) (antibody, V domains shown) VH: QVQLVQSGAEVKKPGSSVKVSCKASGGTFSNYAISWVRQAPGQGLEWMGRIIPILGIANYAQKFQGRVTITADKSTSTAYMELSSLRSEDTAVYYCARGYYEARHYYYYYAMDVWGQGTAVTVSS VL: not shown | 355000 | 40000 | 
12 | 3467 (antibody, V domains shown, also called TRIANNI mouse‐derived antibody 3467) VH: QVQLQESGPGLVKPSETLSLTCTVSGGSISSYHWNWIRQPPGKGLEWIGYIYYSGNTNYNPSLKSRVSISTDTSKNQFSLKLSSVTAADTAVYYCVREMRRGYSGYDYWDLYAFDIWGQGTMVTVSS VL: DIQLTQSPSFLSASVGDRVTITCRASQGISSYLAWYQQKPGKAPNLLIYAASTLQSGVPSRFSGSGSGTEFTLTISSLQPEDFATYYCQQLNSYPHTFGQGTKLEIK | 165000 | 31000 | 25000
